Measurements from paper PMC7537338 (2020).
Where no end group is shown, it is not given here.

Assays:
[1] = target: human CD47-IgV-Domain-hIg fusion protein (human, UniProt Q08722 19-141); test: FACS; competition with human SIRPα on CHO cells
[2] = target: T1, mouse CD47-IgV-Domain-hIg fusion protein (mouse, UniProt Q61735 19-140); test: FACS; competition with mouse SIRPα on CHO cells
T1 chain: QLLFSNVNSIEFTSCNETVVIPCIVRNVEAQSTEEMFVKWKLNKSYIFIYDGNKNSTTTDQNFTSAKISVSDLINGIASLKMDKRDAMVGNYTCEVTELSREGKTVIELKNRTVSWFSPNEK

Sequence of human CD47-IgV-Domain-hIg fusion protein (Q08722 19-141): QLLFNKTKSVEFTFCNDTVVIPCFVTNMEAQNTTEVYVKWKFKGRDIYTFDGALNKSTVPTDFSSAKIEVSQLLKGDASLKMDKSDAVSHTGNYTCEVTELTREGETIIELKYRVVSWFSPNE

B1: pep-20-D12 (peptide)
chain: AWSATWSNYWRH
modifications: also: three D-amino acid residues substituted at N- and C-terminal, places not given here
IC50 [1]: 12.1 µM
IC50 [2]: 18.2 µM
